These results are taken from US20150158938A1 (SNU R AND DB FOUNDATION, published 2015).

For this assay, the target named is T1, vascular endothelial growth factor receptor-2 (VEGFR2) on HUVEC (human, UniProt P35968 20-1356).
T1 construct: whole, on cells
As to the kind of experiment: flow cytometry on HUVEC (express VEGFR2), FITC anti-His detection.

T1 sequence (P35968 20-1356): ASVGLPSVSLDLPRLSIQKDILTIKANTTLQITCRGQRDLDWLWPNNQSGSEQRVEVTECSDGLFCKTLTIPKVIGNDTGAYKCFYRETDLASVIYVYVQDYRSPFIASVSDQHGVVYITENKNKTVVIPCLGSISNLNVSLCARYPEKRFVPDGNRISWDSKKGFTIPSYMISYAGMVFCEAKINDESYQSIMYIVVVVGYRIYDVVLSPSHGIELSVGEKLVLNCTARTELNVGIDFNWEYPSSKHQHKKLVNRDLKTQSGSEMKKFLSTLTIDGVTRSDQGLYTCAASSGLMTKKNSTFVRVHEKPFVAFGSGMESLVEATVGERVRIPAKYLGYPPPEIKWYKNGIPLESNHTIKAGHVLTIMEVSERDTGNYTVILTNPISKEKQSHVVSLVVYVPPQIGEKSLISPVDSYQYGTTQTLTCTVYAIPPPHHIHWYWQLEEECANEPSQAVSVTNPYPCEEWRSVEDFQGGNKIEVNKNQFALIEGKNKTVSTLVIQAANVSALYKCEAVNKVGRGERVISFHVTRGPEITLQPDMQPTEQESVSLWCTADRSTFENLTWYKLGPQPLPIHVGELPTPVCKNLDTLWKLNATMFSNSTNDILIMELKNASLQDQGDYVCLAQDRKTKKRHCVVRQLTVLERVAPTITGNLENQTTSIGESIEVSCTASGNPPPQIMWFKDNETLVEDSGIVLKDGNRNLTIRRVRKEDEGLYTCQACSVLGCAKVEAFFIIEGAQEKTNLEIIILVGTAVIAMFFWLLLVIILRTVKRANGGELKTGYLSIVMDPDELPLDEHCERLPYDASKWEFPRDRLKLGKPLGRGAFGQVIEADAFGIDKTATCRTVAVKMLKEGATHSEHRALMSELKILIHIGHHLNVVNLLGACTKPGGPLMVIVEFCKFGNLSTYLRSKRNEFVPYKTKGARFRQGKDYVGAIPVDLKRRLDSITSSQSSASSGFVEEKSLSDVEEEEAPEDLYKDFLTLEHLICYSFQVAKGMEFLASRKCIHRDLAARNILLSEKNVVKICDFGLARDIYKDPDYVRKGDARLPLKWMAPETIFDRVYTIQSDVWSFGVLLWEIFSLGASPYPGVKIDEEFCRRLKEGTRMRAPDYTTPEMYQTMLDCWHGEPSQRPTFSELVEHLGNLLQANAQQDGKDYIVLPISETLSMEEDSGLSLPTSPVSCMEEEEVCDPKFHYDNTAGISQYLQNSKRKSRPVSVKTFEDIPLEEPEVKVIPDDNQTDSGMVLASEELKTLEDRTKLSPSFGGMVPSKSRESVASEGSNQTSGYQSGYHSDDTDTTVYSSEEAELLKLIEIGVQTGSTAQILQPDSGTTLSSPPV

B1: His-tagged gremlin-1 (R&D Systems) (ligand, UniProt O60565 25-184, looked up)
chain: KKKGSQGAIPPPDKAQHNDSEQTQSPQQPGSRNRGRGQGRGTAMPGEEVLESSQEALHVTERKYLKRDWCKTQPLKQTIHEEGCNSRTIINRFCYGQCNSFYIPRHIRKEEGSFQSCSFCKPKKFTTMMVTLNCPELQPPTKKKRVTRVKQCRCISIDLD
notes: Commercial protein; not shown: His tag
B1: the binding result was “no binding (tested: 100 nM)”.
